From paper PMC7611526

Legend:
Assay in all cases: EMSA
OCT4-DBD (Homo sapiens) = system: OCT4-DBD (Homo sapiens)
[1] = system: OCT4-del-73 (Homo sapiens)
OCT4-WT (Homo sapiens) = system: OCT4-WT (Homo sapiens)

## LIN28B-DNA
OCT4-DBD (Homo sapiens)
  Kd: 4.53 nM
[1]
  Kd: 0.85 nM
OCT4-WT (Homo sapiens)
  Kd: 1.44 nM

## LIN28B-nucleosome
[1]
  Kd: 0.949 nM
